These results are taken from doi:10.1101/2023.09.27.559698.

One data set deals with 53BP1 GAR-Tudor (Homo sapiens, UniProt Q12888 1288-1659). As to the kind of experiment: SPR.
The next data set addresses 53BP1 GAR(3K)-Tudor (Homo sapiens, UniProt Q12888 1288-1659, R1396K;R1398K;R1401K). As to the kind of experiment: SPR.

Sequence of 53BP1 GAR(3K)-Tudor (Q12888 1288-1659 R1396K/R1398K/R1401K): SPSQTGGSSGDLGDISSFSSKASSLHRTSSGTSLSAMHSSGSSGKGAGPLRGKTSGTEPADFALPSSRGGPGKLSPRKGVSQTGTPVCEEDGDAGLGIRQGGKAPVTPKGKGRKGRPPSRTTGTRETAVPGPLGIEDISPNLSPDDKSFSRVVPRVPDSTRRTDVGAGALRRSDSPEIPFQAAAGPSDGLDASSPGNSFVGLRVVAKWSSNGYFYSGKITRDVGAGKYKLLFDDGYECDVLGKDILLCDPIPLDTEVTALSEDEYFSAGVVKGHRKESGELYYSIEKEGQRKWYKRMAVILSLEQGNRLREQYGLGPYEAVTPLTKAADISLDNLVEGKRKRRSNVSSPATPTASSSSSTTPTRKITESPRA
Sequence of 53BP1 GAR-Tudor (Q12888 1288-1659): as the sequence (Q12888 1288-1659 R1396K/R1398K/R1401K) above, with K109R, K111R, K114R counted along it

B1: SC1 RNA, biotinylated (structured_RNA)
RNA: GCUGCGGUGUGGAAGGAGUGGUCGGGUUGCGCAGCG
For orientation: Kd means the constant that tells how readily two partners part at equilibrium. Read a high Kd as lower affinity. The molecule B1 returned a Kd in the data set with 53BP1 GAR-Tudor of about 8 nM. Moreover, the binding result with 53BP1 GAR(3K)-Tudor is “no binding”.
